Experimental data reported in PMC12102759.

B1: KIAA1671 peptide 600-615 (Uncharacterized protein KIAA1671), 16-mer library wild type / MDM2 SWIB (MDM2 SWIB/MDM2 domain, residues 17-125) (parent)
chain 1: TPEDDRSFQTVWATVF
chain 2: SQIPASEQETLVRPKPLLLKLLKSVGAQKDTYTMKEVLFYLGQYIMTKRLYDEKQQHIVYCSNDLLGDLFGVPSFSVKEHRKIYTMIYRNLVVVNQQESSDSGTSVSEN
B2: PRDM14 peptide 196-211 (PR domain zinc finger protein 14), 16-mer library wild type / NSP3 SUD-M (ORF1ab Nsp3c SUD-M, residues 1356-1493) (parent)
chain 1: QFTEEDLHFVLYGVTP
chain 2: LPSIISNEKQEILGTVSWNLREMLAHAEETRKLMPVCVETKAIVSTIQRKYKGIKIQEGVVDYGARFYFYTSKTTVASLINTLNDLNETLVTMPLGYVTHGLNLEEAARYMRSLKVPATVSVSSPDAVTAYNGYLTSS
B3: ICA1L peptide 453-468 (Islet cell autoantigen 1-like protein), 16-mer library wild type / NSP16 (ORF1ab Nsp16, residues 6799-7088) (parent)
chain 1: MSAWFNLFADLDPLSN
chain 2: SSQAWQPGVAMPNLYKMQRMLLEKCDLQNYGDSATLPKGIMMNVAKYTQLCQYLNTLTLAVPYNMRVIHFGAGSDKGVAPGTAVLRQWLPTGTLLVDSDLNDFVSDADSTLIGDCATVHTANKWDLIISDMYDPKTKNVTKENDSKEGFFTYICGFIQQKLALGGSVAIKITEHSWNADLYKLMGHFAWWTAFVTNVNASSSEAFLIGCNYLGKPREQIDGYVMHANYIFWRNTNPIQLSSYSLFDMSKFPLKLRGTAVMSLKEGQINDMILSLLSKGRLIIRENNRVVI
B4: AZIN2 peptide 1-16 (Antizyme inhibitor 2), 16-mer library wild type / NSP3 ADRP (ORF1ab Nsp3b ADRP, residues 1023-1192) (parent)
chain 1: MAGYLSESDFVMVEEG
chain 2: not shown

Variants of: B1
Test: proteomic peptide phage display deep mutational scan (ProP-PD DMS): M13 P8 16-mer library selected against immobilised GST-tagged bait for four days (rounds), NGS of the eluted pools per day and pseudo-replica
Details: with MDM2 SWIB (MDM2 SWIB/MDM2 domain, residues 17-125); bait immobilised on MaxiSorp plates (10 µg), library pre-cleared on GST, 2 h binding at 4 °C, five washes; one round per day, days 1-4; value from days 2 and 3; keep out of graded; scale: average fractional NGS count over selection days 2 and 3

Variant | screen value
chain 1 E3K | 0.000111
chain 1 E3G | 0.000104
chain 1 E3S | 0.00105
chain 1 E3P | 5.24e-05

Variants of: B2
Test: not given
Details: with NSP3 SUD-M (ORF1ab Nsp3c SUD-M, residues 1356-1493); bait immobilised on MaxiSorp plates (10 µg), library pre-cleared on GST, 2 h binding at 4 °C, five washes; one round per day, days 1-4; value from days 2 and 3; keep out of graded; scale: average fractional NGS count over selection days 2 and 3

Variant | screen value
chain 1 V10K | 0
chain 1 V10E | 0
chain 1 V10H | 0
chain 1 V10D | 0
chain 1 V10N | 0
chain 1 H8P | 2.01e-05
chain 1 H8S | 2.39e-05
chain 1 F2Y | 0
chain 1 Y12P | 0
chain 1 Y12F | 1.23e-05
chain 1 E5R | 0
chain 1 E5S | 0
chain 1 T3I | 0
chain 1 T3Q | 0
chain 1 L11A | 0
chain 1 L11T | 0
chain 1 L11G | 0
chain 1 L11D | 0
chain 1 L11N | 0

Variant | screen value
chain 1 L11M | 0
chain 1 L11E | 0
chain 1 F9D | 0
chain 1 T15F | 0
chain 1 T15R | 0
chain 1 T15M | 0
chain 1 P16W | 2.83e-05
chain 1 V14Y | 1.26e-05
chain 1 V14N | 3.28e-05
chain 1 V14D | 3.47e-05
chain 1 V14E | 3.19e-05
chain 1 V14Q | 0
chain 1 L7I | 1.23e-05
chain 1 L7K | 0
chain 1 L7G | 0
chain 1 E4F | 1.23e-05
chain 1 E4T | 1.11e-05
chain 1 E4D | 2.34e-05
chain 1 E4N | 0

Variants of: B3
Test: not given
Details: with NSP16 (ORF1ab Nsp16, residues 6799-7088); bait immobilised on MaxiSorp plates (10 µg), library pre-cleared on GST, 2 h binding at 4 °C, five washes; one round per day, days 1-4; value from days 2 and 3; keep out of graded; scale: average fractional NGS count over selection days 2 and 3

Variant | screen value
chain 1 W4A | 0
chain 1 N6R | 0
chain 1 N6K | 0
chain 1 A3P | 0
chain 1 A3D | 4.01e-05
chain 1 A3L | 0
chain 1 S15R | 0
chain 1 L7S | 0
chain 1 A9N | 0
chain 1 F5W | 0
chain 1 F5L | 0
chain 1 D10Y | 6.76e-05
chain 1 P13V | 0
chain 1 F8Y | 0
chain 1 S2L | 0
chain 1 S2D | 0.00136
chain 1 L11I | 1.35e-05
chain 1 L11P | 0
chain 1 L11W | 0

Variants of: B4
Test: not given
Details: with NSP3 ADRP (ORF1ab Nsp3b ADRP, residues 1023-1192); bait immobilised on MaxiSorp plates (10 µg), library pre-cleared on GST, 2 h binding at 4 °C, five washes; one round per day, days 1-4; value from days 2 and 3; keep out of graded; scale: average fractional NGS count over selection days 2 and 3

Variant | screen value
chain 1 V13G | 0
chain 1 V13F | 1.65e-05
chain 1 V13N | 6.59e-05
chain 1 V13S | 3.26e-05
chain 1 V13A | 1.13e-05
chain 1 V13P | 5.36e-05
chain 1 V13W | 4.62e-05
chain 1 V13E | 4.94e-05
chain 1 E15V | 2.58e-05
chain 1 E15W | 0
chain 1 E15M | 0
chain 1 E15Y | 0
chain 1 E15F | 0
chain 1 E15K | 0
chain 1 L5M | 1.33e-05
chain 1 G3S | 2.71e-05
chain 1 G3P | 0
chain 1 G3T | 0
chain 1 Y4F | 1.08e-05
chain 1 G16W | 5.19e-05
chain 1 G16M | 3.8e-05
chain 1 S8N | 5.33e-05
